Assay results from publication PMC3241732 (The Journal of Cell Biology, 2011).
One block for each binder: values may come before it.

Target: T1, His6-Cdc12 (Saccharomyces cerevisiae, UniProt P32468 1-407)
T1 sequence: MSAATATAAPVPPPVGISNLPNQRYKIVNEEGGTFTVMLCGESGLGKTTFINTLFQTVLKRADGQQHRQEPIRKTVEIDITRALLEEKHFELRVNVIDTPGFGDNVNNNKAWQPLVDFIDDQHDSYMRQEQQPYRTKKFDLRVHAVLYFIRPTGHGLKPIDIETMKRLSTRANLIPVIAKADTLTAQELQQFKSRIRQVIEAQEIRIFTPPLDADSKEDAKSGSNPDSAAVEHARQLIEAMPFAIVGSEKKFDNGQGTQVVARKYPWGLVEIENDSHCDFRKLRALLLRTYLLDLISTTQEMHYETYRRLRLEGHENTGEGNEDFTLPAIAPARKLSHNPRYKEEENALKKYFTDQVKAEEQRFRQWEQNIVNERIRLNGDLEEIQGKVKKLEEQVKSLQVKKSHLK
Test: negative-stain EM, single-particle class averages

- percent of particles that are heptamers: 15%
- percent of particles that are hexamers: 38%
- percent of particles that are octamers: 47%
B1: Shs1 (natural protein)
chain: MSTASTPPINLFRRKKEHKRGITYTMLLCGPAGTGKTAFANNLLETKIFPHKYQYGKSNASISSNPEVKVIAPTKVVSFNSKNGIPSYVSEFDPMRANLEPGITITSTSLELGGNKDQGKPEMNEDDTVFFNLIMTHGIGENLDDSLCSEEVMSYLEQQFDIVLAEETRIKRNPRFEDTRVHVALYFIEPTGHGLREVDVELMKSISKYTNVLPIITRADSFTKEELTQFRKNIMFDVERYNVPIYKFEVDPEDDDLESMEENQALASLQPFAIITSDTRDSEGRYVREYPWGIISIDDDKISDLKVLKNVLFGSHLQEFKDTTQNLLYENYRSEKLSSVANAEEIGPNSTKRQSNAPSLSNFASLISTGQFNSSQTLANNLRADTPRNQVSGNFKENEYEDNGEHDSAENEQEMSPVRQLGREIKQENENLIRSIKTESSPKFLNSPDLPERTKLRNISETVPYVLRHERILARQQKLEELEAQSAKELQKRIQELERKAHELKLREKLINQNKLNGSSSSINSLQQSTRSQIKKNDTYTDLASIASGRD

- percent of particles that are octamers: 72%
B2: Shs1(Δ349–551) (domain or fragment)
chain: MSTASTPPINLFRRKKEHKRGITYTMLLCGPAGTGKTAFANNLLETKIFPHKYQYGKSNASISSNPEVKVIAPTKVVSFNSKNGIPSYVSEFDPMRANLEPGITITSTSLELGGNKDQGKPEMNEDDTVFFNLIMTHGIGENLDDSLCSEEVMSYLEQQFDIVLAEETRIKRNPRFEDTRVHVALYFIEPTGHGLREVDVELMKSISKYTNVLPIITRADSFTKEELTQFRKNIMFDVERYNVPIYKFEVDPEDDDLESMEENQALASLQPFAIITSDTRDSEGRYVREYPWGIISIDDDKISDLKVLKNVLFGSHLQEFKDTTQNLLYENYRSEKLSSVANAEEIGP

- percent of particles that are heptamers: 10%
- percent of particles that are hexamers: 4%
- percent of particles that are octamers: 86%
B3: Cdc11 (natural protein)
chain: MSGIIDASSALRKRKHLKRGITFTVMIVGQSGSGRSTFINTLCGQQVVDTSTTILLPTDTSTEIDLQLREETVELEDDEGVKIQLNIIDTPGFGDSLDNSPSFEIISDYIRHQYDEILLEESRVRRNPRFKDGRVHCCLYLINPTGHGLKEIDVEFIRQLGSLVNIIPVISKSDSLTRDELKLNKKLIMEDIDRWNLPIYNFPFDEDEISDEDYETNMYLRTLLPFAIIGSNEVYEMGGDVGTIRGRKYPWGILDVEDSSISDFVILRNALLISHLHDLKNYTHEILYERYRTEALSGESVAAESIRPNLTKLNGSSSSSTTTRRNTNPFKQSNNINNDVLNPASDMHGQSTGENNETYMTREEQIRLEEERLKAFEERVQQELLLKRQELLQREKELREIEARLEKEAKIKQEE
